The series relates to NheI restriction endonuclease (R.NheI) (Neisseria mucosa heidelbergensis). The experiment in a line: cleavage_in_vitro. The settings on record: cell extract of clones #1 and #9; AvaI-linearized pBR322 cleaved into 1196 and 3165 bp fragments.

Regarding “GCTAGC (double strand) [NheI site in AvaI-linearized pBR322]”, the activity (units per gram wet cells) stood at 1e+07.

Source of the values: patent US6387681.
